Results published in US20260274955A1 (JANUX THERAPEUTICS, published 2026).

Key:
[1] = target: T1, Anti-CD28 Fab (SEQ ID NOs: 202, 203); experiment: phage ELISA, Fab on plate, CD28 antigen as competitor
T1 construct: biotinylated and captured on neutravidin coated plates in the phage ELISA
Protocol: (§1) After panning, phage infected bacteria were plated out and colonies picked into 96 well blocks. Clonal phage was then amplified and separated from bacterial cells via centrifugation.
(§2) Clonal phage were harvested as crude supernatants and screened via standard ELISAs. […] Prior to the addition of clonal phage, wells were incubated with blocking buffer and CD28 antigen or blocking buffer alone. Without washing or aspirating, clonal phage supernatants were then added to the wells and incubated for a short time. Wells were then washed followed by detection of bound phage using a horse radish conjugated anti-M13 antibody. Clonal phage of interest were then sent for sequence analysis.

[2] = target: T1, Anti-CD28 Fab (SEQ ID NOs: 202, 203); experiment: phage ELISA, Fab on plate;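 also: crude clonal phage supernatants added to wells pretreated with blocking buffer with or without CD28 antigen, then bound phage read out via HRP-linked anti-M13 antibody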
Protocol: as §1, §2

T1 sequence (VH, as listed by the source, chain 1 of 2): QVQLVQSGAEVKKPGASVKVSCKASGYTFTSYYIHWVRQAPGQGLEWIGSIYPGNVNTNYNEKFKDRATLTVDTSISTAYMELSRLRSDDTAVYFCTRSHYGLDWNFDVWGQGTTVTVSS
T1 sequence (VL, as listed by the source, chain 2 of 2): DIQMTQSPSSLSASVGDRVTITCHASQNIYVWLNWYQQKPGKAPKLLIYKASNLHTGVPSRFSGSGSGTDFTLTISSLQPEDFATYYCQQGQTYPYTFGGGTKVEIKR

YCEGHSYQYMQKCL [Phage-715]
Anti-CD28 Fab signal in the presence of CD28 [1]: 0.06 | Anti-CD28 Fab (SEQ ID NOs: 202, 203) signal [2]: 1.16

YCDGHAPEYLGKCL [Phage-609]
Anti-CD28 Fab signal in the presence of CD28 [1]: 0.06 | Anti-CD28 Fab (SEQ ID NOs: 202, 203) signal [2]: 1.41

YCDGHSPEHMGKCL [Phage-615]
Anti-CD28 Fab signal in the presence of CD28 [1]: 0.09 | Anti-CD28 Fab (SEQ ID NOs: 202, 203) signal [2]: 1.4

YCDGHSEAYIEKCL [Phage-648]
Anti-CD28 Fab signal in the presence of CD28 [1]: 0.06 | Anti-CD28 Fab (SEQ ID NOs: 202, 203) signal [2]: 1.34

YCDGHMVQYMAKCL [Phage-639]
Anti-CD28 Fab signal in the presence of CD28 [1]: 0.07 | Anti-CD28 Fab (SEQ ID NOs: 202, 203) signal [2]: 1.36

YCEGHSQLYMAKCL [Phage-630]
Anti-CD28 Fab signal in the presence of CD28 [1]: 0.07 | Anti-CD28 Fab (SEQ ID NOs: 202, 203) signal [2]: 1.37

YCDGHSLEYMLKCL [Phage-620]
Anti-CD28 Fab signal in the presence of CD28 [1]: 0.07 | Anti-CD28 Fab (SEQ ID NOs: 202, 203) signal [2]: 1.39

YCDGHLSIYMTKCL [Phage-638]
Anti-CD28 Fab signal in the presence of CD28 [1]: 0.07 | Anti-CD28 Fab (SEQ ID NOs: 202, 203) signal [2]: 1.36

YCDGHVKEYMYKCL [Phage-636]
Anti-CD28 Fab signal in the presence of CD28 [1]: 0.06 | Anti-CD28 Fab (SEQ ID NOs: 202, 203) signal [2]: 1.36

YCDGHQPQYMSKCL [Phage-628]
Anti-CD28 Fab signal in the presence of CD28 [1]: 0.09 | Anti-CD28 Fab (SEQ ID NOs: 202, 203) signal [2]: 1.38

YCAGHASEYMAKCL [Phage-650]
Anti-CD28 Fab signal in the presence of CD28 [1]: 0.08 | Anti-CD28 Fab (SEQ ID NOs: 202, 203) signal [2]: 1.33

YCDGHSKEYMAKCL [Phage-646]
Anti-CD28 Fab signal in the presence of CD28 [1]: 0.06 | Anti-CD28 Fab (SEQ ID NOs: 202, 203) signal [2]: 1.34

YCAGHTSEYMSKCL [Phage-634]
Anti-CD28 Fab signal in the presence of CD28 [1]: 0.07 | Anti-CD28 Fab (SEQ ID NOs: 202, 203) signal [2]: 1.36

YCDGHDARYMEKCL [Phage-616]
Anti-CD28 Fab signal in the presence of CD28 [1]: 0.06 | Anti-CD28 Fab (SEQ ID NOs: 202, 203) signal [2]: 1.4

YCEGHHPWYVQKCL [Phage-621]
Anti-CD28 Fab signal in the presence of CD28 [1]: 0.07 | Anti-CD28 Fab (SEQ ID NOs: 202, 203) signal [2]: 1.39

YCDGHAEQYMSKCL [Phage-623]
Anti-CD28 Fab signal in the presence of CD28 [1]: 0.07 | Anti-CD28 Fab (SEQ ID NOs: 202, 203) signal [2]: 1.38

YCDGHLSEYIGKCL [Phage-629]
Anti-CD28 Fab signal in the presence of CD28 [1]: 0.06 | Anti-CD28 Fab (SEQ ID NOs: 202, 203) signal [2]: 1.37

YCAGHSAEYMSKCL [Phage-612]
Anti-CD28 Fab signal in the presence of CD28 [1]: 0.07 | Anti-CD28 Fab (SEQ ID NOs: 202, 203) signal [2]: 1.41

YCDGHSEEFMWKCL [Phage-640]
Anti-CD28 Fab signal in the presence of CD28 [1]: 0.06 | Anti-CD28 Fab (SEQ ID NOs: 202, 203) signal [2]: 1.35

YCSGHLPEYMDKCL [Phage-619]
Anti-CD28 Fab signal in the presence of CD28 [1]: 0.07 | Anti-CD28 Fab (SEQ ID NOs: 202, 203) signal [2]: 1.39

YCDGHSLEYIDKCM [Phage-607]
Anti-CD28 Fab signal in the presence of CD28 [1]: 0.09 | Anti-CD28 Fab (SEQ ID NOs: 202, 203) signal [2]: 1.42

YCDGHSETYLWKCL [Phage-631]
Anti-CD28 Fab signal in the presence of CD28 [1]: 0.1 | Anti-CD28 Fab (SEQ ID NOs: 202, 203) signal [2]: 1.37

YCDGLFQLYMMKCL [Phage-624]
Anti-CD28 Fab signal in the presence of CD28 [1]: 0.07 | Anti-CD28 Fab (SEQ ID NOs: 202, 203) signal [2]: 1.38

YCDGHAPQYMRKCL [Phage-651]
Anti-CD28 Fab signal in the presence of CD28 [1]: 0.08 | Anti-CD28 Fab (SEQ ID NOs: 202, 203) signal [2]: 1.33

YCDGHLMEYKAKCL [Phage-613]
Anti-CD28 Fab signal in the presence of CD28 [1]: 0.06 | Anti-CD28 Fab (SEQ ID NOs: 202, 203) signal [2]: 1.41

YCDGHLPLYMQKCF [Phage-652]
Anti-CD28 Fab signal in the presence of CD28 [1]: 0.1 | Anti-CD28 Fab (SEQ ID NOs: 202, 203) signal [2]: 1.33

YCDGHMKEYMLKCL [Phage-635]
Anti-CD28 Fab signal in the presence of CD28 [1]: 0.06 | Anti-CD28 Fab (SEQ ID NOs: 202, 203) signal [2]: 1.36

YCEGHLEIYLAKCL [Phage-655]
Anti-CD28 Fab signal in the presence of CD28 [1]: 0.07 | Anti-CD28 Fab (SEQ ID NOs: 202, 203) signal [2]: 1.32

YCDGHAPEYIQKCL [Phage-625]
Anti-CD28 Fab signal in the presence of CD28 [1]: 0.06 | Anti-CD28 Fab (SEQ ID NOs: 202, 203) signal [2]: 1.38

YCDGHSPEYMQKCL [Phage-617]
Anti-CD28 Fab signal in the presence of CD28 [1]: 0.53 | Anti-CD28 Fab (SEQ ID NOs: 202, 203) signal [2]: 1.4

YCDGHLQEYMQKCL [Phage-627]
Anti-CD28 Fab signal in the presence of CD28 [1]: 0.06 | Anti-CD28 Fab (SEQ ID NOs: 202, 203) signal [2]: 1.38

YCDGHSHEYMQKCL [Phage-611]
Anti-CD28 Fab signal in the presence of CD28 [1]: 0.06 | Anti-CD28 Fab (SEQ ID NOs: 202, 203) signal [2]: 1.41

YCDGHLPEYMQKCL [Phage-643]
Anti-CD28 Fab signal in the presence of CD28 [1]: 0.08 | Anti-CD28 Fab (SEQ ID NOs: 202, 203) signal [2]: 1.35

YCEGHLPAYMGKCI [Phage-632]
Anti-CD28 Fab signal in the presence of CD28 [1]: 0.09 | Anti-CD28 Fab (SEQ ID NOs: 202, 203) signal [2]: 1.37

YCEGHLPMYMQKCL [Phage-660]
Anti-CD28 Fab signal in the presence of CD28 [1]: 0.08 | Anti-CD28 Fab (SEQ ID NOs: 202, 203) signal [2]: 1.31

YCAGHLPMYMQKCL [Phage-653]
Anti-CD28 Fab signal in the presence of CD28 [1]: 0.08 | Anti-CD28 Fab (SEQ ID NOs: 202, 203) signal [2]: 1.33

YCEGHLPMYMTKCL [Phage-686]
Anti-CD28 Fab signal in the presence of CD28 [1]: 0.06 | Anti-CD28 Fab (SEQ ID NOs: 202, 203) signal [2]: 1.25

YCEGHMEKYMEKCL [Phage-641]
Anti-CD28 Fab signal in the presence of CD28 [1]: 0.11 | Anti-CD28 Fab (SEQ ID NOs: 202, 203) signal [2]: 1.35

YCEGHLDEYLQKCL [Phage-626]
Anti-CD28 Fab signal in the presence of CD28 [1]: 0.07 | Anti-CD28 Fab (SEQ ID NOs: 202, 203) signal [2]: 1.38

YCNGHLPEYMSKCI [Phage-618]
Anti-CD28 Fab signal in the presence of CD28 [1]: 0.07 | Anti-CD28 Fab (SEQ ID NOs: 202, 203) signal [2]: 1.4

YCDGHSPAFIQKCL [Phage-606]
Anti-CD28 Fab signal in the presence of CD28 [1]: 0.08 | Anti-CD28 Fab (SEQ ID NOs: 202, 203) signal [2]: 1.42

YCEGHSPEYMHKCL [Phage-647]
Anti-CD28 Fab signal in the presence of CD28 [1]: 0.09 | Anti-CD28 Fab (SEQ ID NOs: 202, 203) signal [2]: 1.34

YCEGHSAEYIAKCL [Phage-614]
Anti-CD28 Fab signal in the presence of CD28 [1]: 0.09 | Anti-CD28 Fab (SEQ ID NOs: 202, 203) signal [2]: 1.41

YCEGHSAEYIGKCL [Phage-738]
Anti-CD28 Fab signal in the presence of CD28 [1]: 0.07 | Anti-CD28 Fab (SEQ ID NOs: 202, 203) signal [2]: 1.08

YCDGHSAEYIAKCL [Phage-662]
Anti-CD28 Fab signal in the presence of CD28 [1]: 0.05 | Anti-CD28 Fab (SEQ ID NOs: 202, 203) signal [2]: 1.31

YCDGHLLQYMHKCL [Phage-644]
Anti-CD28 Fab signal in the presence of CD28 [1]: 0.07 | Anti-CD28 Fab (SEQ ID NOs: 202, 203) signal [2]: 1.35

YCQGHSPNYITKCF [Phage-608]
Anti-CD28 Fab signal in the presence of CD28 [1]: 0.06 | Anti-CD28 Fab (SEQ ID NOs: 202, 203) signal [2]: 1.41

YCAGHAEEYLEKCL [Phage-610]
Anti-CD28 Fab signal in the presence of CD28 [1]: 0.15 | Anti-CD28 Fab (SEQ ID NOs: 202, 203) signal [2]: 1.41

YCDGHLALYMWKCL [Phage-637]
Anti-CD28 Fab signal in the presence of CD28 [1]: 0.17 | Anti-CD28 Fab (SEQ ID NOs: 202, 203) signal [2]: 1.36

YCSEHQIIFIQKCL [Phage-654]
Anti-CD28 Fab signal in the presence of CD28 [1]: 0.08 | Anti-CD28 Fab (SEQ ID NOs: 202, 203) signal [2]: 1.32

YCDGHLPRYMAKCL [Phage-642]
Anti-CD28 Fab signal in the presence of CD28 [1]: 0.1 | Anti-CD28 Fab (SEQ ID NOs: 202, 203) signal [2]: 1.35

YCDGHLPDYMAKCL [Phage-712]
Anti-CD28 Fab signal in the presence of CD28 [1]: 0.07 | Anti-CD28 Fab (SEQ ID NOs: 202, 203) signal [2]: 1.17
